Data set [1] concerns YggS (E. coli PLP-BP), wild type (Escherichia coli). Kind of data set: EMSA. To be noted: apo-form (no PLP); REMSA with fixed RNA: 10 mM HEPES pH 7.3, 10 mM KCl, 1 mM MgCl2, 1 mM DTT, 5% glycerol, RT 30 min; 5% native PAGE, 0.5x TBE (fixed-protein REMSA: 20 mM HEPES …). For orientation: In EMSA bound probe runs differently from free probe, usually more slowly.
The target of data set [2] is T1, YggS (E. coli PLP-BP), wild type (Escherichia coli) (UniProt P67080).
T1 sequence: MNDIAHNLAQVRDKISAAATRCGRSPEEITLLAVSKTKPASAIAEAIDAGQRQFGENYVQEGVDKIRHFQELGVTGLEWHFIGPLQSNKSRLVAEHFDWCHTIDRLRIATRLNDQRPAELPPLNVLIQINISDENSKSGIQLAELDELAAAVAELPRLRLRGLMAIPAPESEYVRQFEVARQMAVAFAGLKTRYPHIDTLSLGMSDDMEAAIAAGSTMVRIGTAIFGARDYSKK
Kind of data set: EMSA. Conditions: REMSA with fixed RNA: 10 mM HEPES pH 7.3, 10 mM KCl, 1 mM MgCl2, 1 mM DTT, 5% glycerol, RT 30 min; 5% native PAGE, 0.5x TBE (fixed-protein REMSA: 20 mM HEPES …).

From publication PMC11602438 come the findings set out here.

Usually Kd stands for the free concentration of one partner at which half of the binding sites on the other are occupied at equilibrium, for simple one-to-one binding. A high value points to lower affinity. Substance RnpB RNA fragment (210-357) came in with a Kd in data set [1] of 3.4 µM.
On to SsrA RNA fragment (198-318), for which the Kd in data set [1] was 2.8 µM.
For “GGGUCGCGUGGAAGCCCUGCCUGGGGUUGAAGCGUUAAAACUUAAUCAGGCUAGUUUGUUAGUGGCGUGUCCGUCCGCAGCUGGCAAGCGAAUGUAAAGACUGACUAAGCAUGUAGUACCGAGG [SsrA RNA fragment (198-318)]”, the Kd in data set [2] was 2.8 µM.
“GGGUGGUAACAGUCCGUGGCACGGUAAACUCCACCCGGAGCAAGGCCAAAUAGGGGUUCAUAAGGUACGGCCCGUACUGAACCCGGGUAGGCUGCUUGAGCCAGUGAGCGAUUGCUGGCCUAGAUGAAUGACUGUCCACGACAGAACCCGG [RnpB RNA fragment (210-357)]” came in with a Kd in data set [2] of 3.4 µM. This Kd and that of the substance before are within 1.5-fold of each other.
